{
  "source": "paper PMC5052685",
  "about": "“The RNA-binding protein vigilin regulates VLDL secretion through modulation of Apob mRNA translation”",
  "target": "VIGILIN (Homo sapiens, UniProt Q00341 1-1268)",
  "sequence (Q00341 whole entry)": "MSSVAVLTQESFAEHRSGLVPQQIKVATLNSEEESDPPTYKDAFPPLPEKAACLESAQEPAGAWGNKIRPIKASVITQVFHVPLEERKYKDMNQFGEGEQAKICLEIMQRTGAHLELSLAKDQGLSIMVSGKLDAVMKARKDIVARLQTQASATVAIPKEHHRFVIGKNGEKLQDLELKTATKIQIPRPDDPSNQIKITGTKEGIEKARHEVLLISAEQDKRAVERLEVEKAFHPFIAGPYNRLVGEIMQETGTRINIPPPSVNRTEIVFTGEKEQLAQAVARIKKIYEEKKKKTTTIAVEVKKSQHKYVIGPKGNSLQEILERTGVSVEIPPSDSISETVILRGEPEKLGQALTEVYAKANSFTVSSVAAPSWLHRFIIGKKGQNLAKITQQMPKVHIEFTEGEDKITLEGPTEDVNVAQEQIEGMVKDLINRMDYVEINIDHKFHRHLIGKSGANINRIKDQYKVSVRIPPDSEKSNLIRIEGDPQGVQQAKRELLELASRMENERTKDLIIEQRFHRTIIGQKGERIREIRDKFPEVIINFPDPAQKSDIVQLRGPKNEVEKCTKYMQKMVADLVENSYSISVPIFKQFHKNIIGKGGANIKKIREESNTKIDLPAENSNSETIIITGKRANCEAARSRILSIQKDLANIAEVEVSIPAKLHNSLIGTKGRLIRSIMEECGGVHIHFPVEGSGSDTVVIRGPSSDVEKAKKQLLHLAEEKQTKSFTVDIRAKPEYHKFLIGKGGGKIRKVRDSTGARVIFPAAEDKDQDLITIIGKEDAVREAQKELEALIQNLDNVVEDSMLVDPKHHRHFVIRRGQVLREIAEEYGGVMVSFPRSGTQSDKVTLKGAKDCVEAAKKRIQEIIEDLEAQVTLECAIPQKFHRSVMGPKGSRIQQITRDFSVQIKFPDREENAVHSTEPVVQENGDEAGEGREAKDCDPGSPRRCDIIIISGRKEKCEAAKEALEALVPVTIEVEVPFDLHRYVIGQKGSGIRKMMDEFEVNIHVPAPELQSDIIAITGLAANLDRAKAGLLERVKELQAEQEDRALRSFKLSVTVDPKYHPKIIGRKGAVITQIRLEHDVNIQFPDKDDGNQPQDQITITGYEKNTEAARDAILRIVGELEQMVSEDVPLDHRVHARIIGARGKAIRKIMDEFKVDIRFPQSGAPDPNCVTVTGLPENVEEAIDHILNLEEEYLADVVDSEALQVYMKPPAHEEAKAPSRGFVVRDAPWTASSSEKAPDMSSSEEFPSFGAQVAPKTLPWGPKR",
  "assay": "EMSA; 10 nM 32P-RNA, 0-10 uM protein, 250 mM KCl, 5 mM MgCl2, 25 mM Tris-HCl pH 7.5, 10% glycerol, 1 mg/ml acetylated BSA, 1.5 uM yeast tRNA, 25 C, 5 min; 1.2% agarose gel, 1x TBE",
  "details": "protein: recombinant; tags: His6 (expressed from pETM30-vigilin-His6); label: 5' 32P",
  "data": [
    {"binder": "GAUUUAACUCCACCUACUUCCAGGGC (ssRNA)", "note": "[Apob binding site WT]", "values": [
      {"measurement": "binding result", "value": "binds"}
    ]},
    {"binder": "CUACCUCAAUAAUCAUCUUCUUCAGG (ssRNA)", "note": "[fetuin-A (Ahsg) binding site WT]", "values": [
      {"measurement": "binding result", "value": "binds"}
    ]}
  ]
}
